This passage reports interaction score results from PMC10397247.

Read-outs that look alike come from different tables or passages of the source.

Common to all, as to assay: two-hybrid library CCmax;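 further: natural log of median RNA to DNA barcode read ratio; higher means stronger binding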
Experiment [1] deals with T1, 4H535-AA.
T1 chain: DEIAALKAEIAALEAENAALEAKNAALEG

The target in experiment [2] is T2, 4H_BCR.
T2 chain: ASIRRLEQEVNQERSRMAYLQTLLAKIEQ
The note with it: mean of both orientations.

Experiment [3] addresses 4H_GCN4.
The target in experiment [4] is T3, 4H58-AA.
T3 chain: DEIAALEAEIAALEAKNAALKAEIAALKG
The conditions noted are these: mean of both orientations.

The target of experiment [5] is T4, 4H895-AA.
T4 chain: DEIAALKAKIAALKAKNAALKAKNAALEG
The note with it: mean of both orientations.

In experiment [6] the target is T5, 4H_APH.
T5 chain: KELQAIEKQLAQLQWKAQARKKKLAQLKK

In experiment [7] the target is GCN2_T.
The target in experiment [8] is T6, 4H451-AA.
T6 chain: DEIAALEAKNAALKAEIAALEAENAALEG
The note with it: mean of both orientations.

Experiment [9] deals with T7, O11-AA.
T7 chain: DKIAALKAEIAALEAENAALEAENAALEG
The note with it: mean of both orientations.

The target in experiment [10] is T8, 4H510-AA.
T8 chain: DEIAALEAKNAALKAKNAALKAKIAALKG
The conditions noted are these: mean of both orientations.

In experiment [11] the target is T9, O13-AA.
T9 chain: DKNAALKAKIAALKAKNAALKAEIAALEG
The conditions noted are these: mean of both orientations.

In experiment [12] the target is T10, O14-AA.
T10 chain: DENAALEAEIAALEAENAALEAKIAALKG
The note with it: mean of both orientations.

Experiment [13] concerns the target T11, 4H4038-AA.
T11 chain: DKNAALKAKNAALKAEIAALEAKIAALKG

The target in experiment [14] is T12, 4H43-AA.
T12 chain: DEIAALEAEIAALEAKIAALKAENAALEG
The conditions noted are these: mean of both orientations.

For experiment [15], the target named is T13, 4H3666-AA.
T13 chain: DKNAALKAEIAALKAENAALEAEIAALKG
The note with it: mean of both orientations.

In experiment [16] the target is T14, 4H3029-AA.
T14 chain: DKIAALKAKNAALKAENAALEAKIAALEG

For experiment [17], the target named is T15, 4H3066-AA.
T15 chain: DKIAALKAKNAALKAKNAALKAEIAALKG
The conditions noted are these: mean of both orientations.

The target in experiment [18] is T16, 4H3709-AA.
T16 chain: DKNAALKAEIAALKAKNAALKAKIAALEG
The conditions noted are these: mean of both orientations.

The target in experiment [19] is T17, 4H3939-AA.
T17 chain: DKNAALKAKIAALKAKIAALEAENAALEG
The conditions noted are these: mean of both orientations.

Experiment [20] concerns the target T18, 4H478-AA.
T18 chain: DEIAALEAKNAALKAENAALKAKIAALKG
The conditions noted are these: mean of both orientations.

Experiment [21] has as its target T19, 4H971-AA.
T19 chain: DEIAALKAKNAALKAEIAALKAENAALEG
The note with it: mean of both orientations.

The target in experiment [22] is T20, 4H3102-AA.
T20 chain: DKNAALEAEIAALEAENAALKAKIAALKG
The note with it: mean of both orientations.

The target in experiment [23] is T21, 4H391-AA.
T21 chain: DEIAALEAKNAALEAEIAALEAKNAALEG
The conditions noted are these: mean of both orientations.

The target of experiment [24] is T22, 4H3628-AA.
T22 chain: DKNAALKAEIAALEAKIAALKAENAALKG
The note with it: mean of both orientations.

In experiment [25] the target is T23, 4H3121-AA.
T23 chain: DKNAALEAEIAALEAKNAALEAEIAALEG
The conditions noted are these: mean of both orientations.

Experiment [26] has as its target T24, 4H428-AA.
T24 chain: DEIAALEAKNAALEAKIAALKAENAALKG
The note with it: mean of both orientations.

The target in experiment [27] is T25, 4H497-AA.
T25 chain: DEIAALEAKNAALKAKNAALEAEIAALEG
The conditions noted are these: mean of both orientations.

The target in experiment [28] is T26, 4H3417-AA.
T26 chain: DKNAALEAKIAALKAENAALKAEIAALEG
The note with it: mean of both orientations.

Experiment [29] has as its target T27, 4H3591-AA.
T27 chain: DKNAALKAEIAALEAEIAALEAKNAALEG
The conditions noted are these: mean of both orientations.

In experiment [30] the target is T28, 4H3920-AA.
T28 chain: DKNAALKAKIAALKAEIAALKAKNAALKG
The conditions noted are these: mean of both orientations.

Experiment [31] addresses T29, 4H675-AA.
T29 chain: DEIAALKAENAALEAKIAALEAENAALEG
The conditions noted are these: mean of both orientations.

Experiment [32] addresses T30, 4H656-AA.
T30 chain: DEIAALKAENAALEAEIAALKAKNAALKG
The conditions noted are these: mean of both orientations.

In experiment [33] the target is T31, 4H3446-AA.
T31 chain: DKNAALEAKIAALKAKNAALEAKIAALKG
The note with it: mean of both orientations.

Chain of 4H_GCN4 (chain, as listed by the source): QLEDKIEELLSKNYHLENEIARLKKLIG

B1: 4H535-AA (peptide)
chain: DEIAALKAEIAALEAENAALEAKNAALEG
Regarding B1, the interaction score is -0.291 in experiment [1]; -1.23 in experiment [2]; -1.41 in experiment [3]; -0.661 in [4]; 2.1 in experiment [5]; -1.48 in [6]. This molecule yielded an interaction score in experiment [7] of -2.47.

B2: 4H4038-AA (peptide)
chain: DKNAALKAKNAALKAEIAALEAKIAALKG
Regarding B2, the interaction score in experiment [8] was -1.08; in experiment [2], -1.53; in experiment [3] it was -1.46; in experiment [9], -1.13; in experiment [10], -1.16; in experiment [6] (mean of both orientations), -2.34. The interaction score was -2.19 in [11]; 1.56 in experiment [12]; -0.654 in experiment [13]; -1.9 in [7]; 0.922 in [14].

B3: 4H3029-AA (peptide)
chain: DKIAALKAKNAALKAENAALEAKIAALEG
For B3, the interaction score in [15] is -1.86; in [16], -0.965; in experiment [17] it was -1.01; in [18], -1.34; in experiment [19], -1.98; in experiment [20], 1.48. Further, the interaction score in [21] was -2.45; in [22] it was 0.23; in [23] it was -1.42; in [24], -1.87; in [25], -1.89; in experiment [26] it was -1.74. The interaction score is -0.722 in experiment [27]; -1.74 in [28]; -1.37 in experiment [29]; -1.69 in experiment [30]; -1.45 in experiment [31]; -1.3 in [32]. Further, the interaction score in [33] is -1.79.
